Source: paper PMC10932607
Read-outs that look alike come from different tables or passages of the source.

Experiments:
[1] = target: SemiSWEET; assay: native MS
[2] = target: SemiSWEET; assay: native MS; remark: listed apart in the source

- stoichiometry N [1]: 2
- stoichiometry N [2]: 2
Substance: SemiSWEET (natural protein)
